# PMC3448977 (Biochemistry, 2012)
# T1: Human BMP-9 (human, UniProt Q9UK05 320-429)
# T1 sequence (looked up): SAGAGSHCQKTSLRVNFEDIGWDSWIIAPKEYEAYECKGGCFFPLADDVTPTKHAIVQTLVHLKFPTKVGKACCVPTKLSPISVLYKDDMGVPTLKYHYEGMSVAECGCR
# Legend:
# BMP-9 (Homo sapiens) = BMP-9 (Homo sapiens) (UniProt Q9UK05); conditions: cited from earlier work
# Human BMP-9 = target: T1, Human BMP-9; assay: SPR
# Sequence of Fc-Alk1 ECD (P37023 22-118): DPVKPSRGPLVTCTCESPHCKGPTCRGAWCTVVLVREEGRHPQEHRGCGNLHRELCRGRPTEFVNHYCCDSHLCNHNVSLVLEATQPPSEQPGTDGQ
Molecule,Kd (BMP-9 (Homo sapiens)) [nM],Kd (Human BMP-9) [nM]
Fc-Alk1 ECD (from UniProt P37023),2.5,
"Alk1 extracellular domain with Arg53-Glu54-Leu55 swapped for Asp-Phe-Gln of Alk3 (Alk1-DFQ) (domain or fragment, human) GSHMDPVKPSRGPLVTCTCESPHCKGPTCRGAWCTVVLVREEGRHPQEHRGCGNLHDFQCRGRPTEFVNHYCCDSHLCNHNVSLVLEATQPPSEQPGTDGQ",,5700
